Measurements taken from patent US20230048960A1 (University of Washington, published 2023).
Square brackets hold non-standard residues; d marks the D form.

target: Aβ42 (UniProt P05067 672-713); assay: cell-based or functional assay
Sequence (P05067 672-713 limits assumed): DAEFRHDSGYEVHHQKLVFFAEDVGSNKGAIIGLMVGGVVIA

Binder	% inhibition of fibril formation (ThT), AP:Aβ42 1:1	% inhibition of fibril formation (ThT), AP:Aβ42 1:10	% inhibition of fibril formation (ThT), AP:Aβ42 1:100
Ac-RGE[dC]N[dL]S[dW]M[dN][dE][dY][dY]GW[dT]M[dN]M[dK]MGR-NH2 (SMILES CSCC[C@H](NC(=O)[C@@H](CCCCN)NC(=O)[C@H](CCSC)NC(=O)[C@@H](CC(N)=O)NC(=O)[C@H](CCSC)NC(=O)[C@H](NC(=O)[C@H](Cc1c[nH]c2ccccc12)NC(=O)CNC(=O)[C@@H](Cc1ccc(O)cc1)NC(=O)[C@@H](Cc1ccc(O)cc1)NC(=O)[C@@H](CCC(=O)O)NC(=O)[C@@H](CC(N)=O)NC(=O)[C@H](CCSC)NC(=O)[C@@H](Cc1c[nH]c2ccccc12)NC(=O)[C@H](CO)NC(=O)[C@@H](CC(C)C)NC(=O)[C@H](CC(N)=O)NC(=O)[C@@H](CS)NC(=O)[C@H](CCC(=O)O)NC(=O)CNC(=O)[C@H](CCCNC(=N)N)NC(C)=O)[C@H](C)O)C(=O)NCC(=O)N[C@@H](CCCNC(=N)N)C(N)=O) [AP523m]	49%	9%	0%
Ac-RGE[dC]N[dL]S[dW]M[dN][dE][dY][dY]GW[dT]M[dN]M[dK]MGR-NH2 (also: disulfide-linked homodimer (Cys4 to Cys4 of other copy), disulfide at 4, other end not in the chain) [AP523d]	100%	87.3%	40.3%

Results, then the binder that gave them:

% inhibition of fibril formation (ThT), AP:Aβ42 1:1	% inhibition of fibril formation (ThT), AP:Aβ42 1:10	% inhibition of fibril formation (ThT), AP:Aβ42 1:100	Binder
53.5%	12.1%	0%	Ac-RGE[dM]N[dL]S[dW]M[dN][dE][dY][dY]GW[dT]M[dN]M[dK]CGR-NH2 (SMILES CSCC[C@H](NC(=O)[C@@H](CC(N)=O)NC(=O)[C@H](CCSC)NC(=O)[C@H](NC(=O)[C@H](Cc1c[nH]c2ccccc12)NC(=O)CNC(=O)[C@@H](Cc1ccc(O)cc1)NC(=O)[C@@H](Cc1ccc(O)cc1)NC(=O)[C@@H](CCC(=O)O)NC(=O)[C@@H](CC(N)=O)NC(=O)[C@H](CCSC)NC(=O)[C@@H](Cc1c[nH]c2ccccc12)NC(=O)[C@H](CO)NC(=O)[C@@H](CC(C)C)NC(=O)[C@H](CC(N)=O)NC(=O)[C@@H](CCSC)NC(=O)[C@H](CCC(=O)O)NC(=O)CNC(=O)[C@H](CCCNC(=N)N)NC(C)=O)[C@H](C)O)C(=O)N[C@H](CCCCN)C(=O)N[C@@H](CS)C(=O)NCC(=O)N[C@@H](CCCNC(=N)N)C(N)=O) [AP525m]
100%	86.1%	43.1%	Ac-RCE[dM]N[dL]S[dW]M[dN][dE][dY][dY]GW[dT]M[dN]M[dK]MGR-NH2 (also: disulfide-linked homodimer via Cys2) [AP524d]
45.8%	7.2%	0%	Ac-RCE[dM]N[dL]S[dW]M[dN][dE][dY][dY]GW[dT]M[dN]M[dK]MGR-NH2 (SMILES CSCC[C@H](NC(=O)[C@@H](CCCCN)NC(=O)[C@H](CCSC)NC(=O)[C@@H](CC(N)=O)NC(=O)[C@H](CCSC)NC(=O)[C@H](NC(=O)[C@H](Cc1c[nH]c2ccccc12)NC(=O)CNC(=O)[C@@H](Cc1ccc(O)cc1)NC(=O)[C@@H](Cc1ccc(O)cc1)NC(=O)[C@@H](CCC(=O)O)NC(=O)[C@@H](CC(N)=O)NC(=O)[C@H](CCSC)NC(=O)[C@@H](Cc1c[nH]c2ccccc12)NC(=O)[C@H](CO)NC(=O)[C@@H](CC(C)C)NC(=O)[C@H](CC(N)=O)NC(=O)[C@@H](CCSC)NC(=O)[C@H](CCC(=O)O)NC(=O)[C@H](CS)NC(=O)[C@H](CCCNC(=N)N)NC(C)=O)[C@H](C)O)C(=O)NCC(=O)N[C@@H](CCCNC(=N)N)C(N)=O) [AP524m]
